Measured values taken from patent US20110151454.
Residue numbers refer to the chain shown, from its start. Numbers in names are those of the source.

B1: gst-PPM1J (protein)
chain: MLNRVRSAVAHLVSSGGAPPPRPKSPDLPNAASAPPAAAPEAPRSPPAKAGSGSATPAKAVEARASFSRPTFLQLSPGGLRRADDHAGRAVQSPPDTGRRLPWSTGYAEVINAGKSRHNEDQACCEVVYVEGRRSVTGVPREPSRGQGLCFYYWGLFDGHAGGGAAEMASRLLHRHIREQLKDLVEILQDPSPPPLCLPTTPGTPDSSDPSHLLGPQSCWSSQKEVSHESLVVGAVENAFQLMDEQMARERRGHQVEGGCCALVVIYLLGKVYVANAGDSRAIIVRNGEIIPMSREFTPETERQRLQLLGFLKPELLGSEFTHLEFPRRVLPKELGQRMLYRDQNMTGWAYKKIELEDLRFPLVCGEGKKARVMATIGVTRGLGDHSLKVCSSTLPIKPFLSCFPEVRVYDLTQYEHCPDDVLVLGTDGLWDVTTDCEVAATVDRVLSAYEPNDHSRYTALAQALVLGARGTPRDRGWRLPNNKLGSGDDISVFVIPLGGPGSYS
B2: λ-phosphatase (protein)
chain: MRYYEKIDGSKYRNIWVVGDLHGCYTNLMNKLDTIGFDNKKDLLISVGDLVDRGAENVECLELITFPWFRAVRGNHEQMMIDGLSERGNVNHWLLNGGGWFFNLDYDKEILAKALAHKADELPLIIELVSKDKKYVICHADYPFDEYEFGKPVDHQQVIWNRERISNSQNGIVKEIKGADTFIFGHTPAVKPLKFANQMYIDTGAVFCGNLTLIQVQGEGA
B3: gst-PPM1H (protein)
chain: MLTRVKSAVANFMGGIMAGSSGSEHGGGSCGGSDLPLRFPYGRPEFLGLSQDEVECSADHIARPILILKETRRLPWATGYAEVINAGKSTHNEDQASCEVLTVKKKAGAVTSTPNRNSSKRRSSLPNGEGLQLKENSESEGVSCHYWSLFDGHAGSGAAVVASRLLQHHITEQLQDIVDILKNSAVLPPTCLGEEPENTPANSRTLTRAASLRGGVGAPGSPSTPPTRFFTEKKIPHECLVIGALESAFKEMDLQIERERSSYNISGGCTALIVICLLGKLYVANAGDSRAIIIRNGEIIPMSSEFTPETERQRLQYLAFMQPHLLGNEFTHLEFPRRVQRKELGKKMLYRDFNMTGWAYKTIEDEDLKFPLIYGEGKKARVMATIGVTRGLGDHDLKVHDSNIYIKPFLSSAPEVRIYDLSKYDHGSDDVLILATDGLWDVLSNEEVAEAITQFLPNCDPDDPHRYTLAAQDLVMRARGVLKDRGWRISNDRLGSGDDISVYVIPLIHGNKLS
B4: flag-PPM1H-H153L (protein)
chain: B3 chain with H153L
B5: flag-PPM1H (protein)
chain: B3 chain

What was measured:
[1] = biological target: HA-tagged p27 phosphorylated at T187 by CDK2/cyclinA, P46527
[2] = biological target: HA-SKP2 phosphorylated in vitro by AKT (32P-SKP2), Q13309
[3] = biological target: SKP2 S75 phospho-peptide
[4] = biological target: p27 T157 phospho-peptide
[5] = biological target: SKP2 S64 phospho-peptide
[6] = biological target: SKP2 S72 phospho-peptide
[7] = biological target: p27 T187 phospho-peptide
[8] = biological target: p27 S10 phospho-peptide

HA-tagged p27 phosphorylated at T187 by CDK2/cyclinA, P46527, sequence (P46527 whole entry, looked up): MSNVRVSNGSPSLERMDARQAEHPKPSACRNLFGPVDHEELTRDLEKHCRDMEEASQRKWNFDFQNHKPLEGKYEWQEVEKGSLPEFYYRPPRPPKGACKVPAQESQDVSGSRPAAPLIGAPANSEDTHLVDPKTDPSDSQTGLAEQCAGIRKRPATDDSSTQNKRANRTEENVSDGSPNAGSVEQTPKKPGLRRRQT
HA-SKP2 phosphorylated in vitro by AKT (32P-SKP2), Q13309, sequence (Q13309 whole entry, looked up): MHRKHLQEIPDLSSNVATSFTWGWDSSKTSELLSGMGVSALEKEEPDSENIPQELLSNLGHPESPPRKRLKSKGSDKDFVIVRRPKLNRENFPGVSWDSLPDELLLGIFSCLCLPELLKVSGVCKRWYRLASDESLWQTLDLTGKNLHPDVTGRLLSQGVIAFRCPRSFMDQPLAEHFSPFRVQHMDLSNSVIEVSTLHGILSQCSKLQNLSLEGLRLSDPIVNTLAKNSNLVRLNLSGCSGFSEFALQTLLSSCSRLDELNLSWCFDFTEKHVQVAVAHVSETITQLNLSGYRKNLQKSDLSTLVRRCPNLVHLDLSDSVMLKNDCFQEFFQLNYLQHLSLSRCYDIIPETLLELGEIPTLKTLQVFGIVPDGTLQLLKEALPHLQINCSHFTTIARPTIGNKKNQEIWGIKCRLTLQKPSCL

Protein | dephosphorylation of p27 at S10 (phosphatase reaction, Western blot) [1] | dephosphorylation of p27 at T187 (phosphatase reaction, Western blot) [1] | removal of 32P from AKT-phosphorylated SKP2 [2] | also measured
B1 | Neither enzyme exhibited activity at S10 | only PPM1H was effective at dephosphorylating p27 at T187 |  | 
B2 |  |  | γ-phosphatase was able to dephosphorylate SKP2 | 
B3 | Neither enzyme exhibited activity at S10 | only PPM1H was effective at dephosphorylating p27 at T187 |  | 
B4 |  | Wildtype PPM1H but not PPM1H-H153L dephosphorylated p27 at T187 |  | 
B5 | PPM1H exhibited no activity at the S10 site in this assay | Wildtype PPM1H but not PPM1H-H153L dephosphorylated p27 at T187 | PPM1H lacked activity | phosphate release from synthetic phospho-peptide (Pi ColorLock Gold assay) [3]: No evidence for PPM1H mediated dephosphorylation of the SKP2 phospho-peptides was observed; phosphate release from synthetic phospho-peptide (Pi ColorLock Gold assay) [4]: Liberation of phosphate was observed with the p27 peptides, most notably with the T187 peptide; phosphate release from synthetic phospho-peptide (Pi ColorLock Gold assay) [5]: No evidence for PPM1H mediated dephosphorylation of the SKP2 phospho-peptides was observed; phosphate release from synthetic phospho-peptide (Pi ColorLock Gold assay) [6]: No evidence for PPM1H mediated dephosphorylation of the SKP2 phospho-peptides was observed; phosphate release from synthetic phospho-peptide (Pi ColorLock Gold assay) [7]: Liberation of phosphate was observed with the p27 peptides, most notably with the T187 peptide; phosphate release from synthetic phospho-peptide (Pi ColorLock Gold assay) [8]: Liberation of phosphate was observed with the p27 peptides, most notably with the T187 peptide
